Test results taken from IntAct's records for PubMed 31515488.

B1: Keratin, type II cytoskeletal 6A (Homo sapiens), P02538 (parent)
chain: MASTSTTIRSHSSSRRGFSANSARLPGVSRSGFSSVSVSRSRGSGGLGGACGGAGFGSRSLYGLGGSKRISIGGGSCAISGGYGSRAGGSYGFGGAGSGFGFGGGAGIGFGLGGGAGLAGGFGGPGFPVCPPGGIQEVTVNQSLLTPLNLQIDPTIQRVRAEEREQIKTLNNKFASFIDKVRFLEQQNKVLETKWTLLQEQGTKTVRQNLEPLFEQYINNLRRQLDSIVGERGRLDSELRGMQDLVEDFKNKYEDEINKRTAAENEFVTLKKDVDAAYMNKVELQAKADTLTDEINFLRALYDAELSQMQTHISDTSVVLSMDNNRNLDLDSIIAEVKAQYEEIAQRSRAEAESWYQTKYEELQVTAGRHGDDLRNTKQEIAEINRMIQRLRSEIDHVKKQCANLQAAIADAEQRGEMALKDAKNKLEGLEDALQKAKQDLARLLKEYQELMNVKLALDVEIATYRKLLEGEECRLNGEGVGQVNISVVQSTVSSGYGGASGVGSGLGLGGGSSYSYGSGLGVGGGFSSSSGRAIGGGLSSVGGGSSTIKYTTTSSSSRKSYKH

Variants of: B1
Settings: with KRT17, Q04695
KRT17, Q04695, sequence (Q04695 whole entry): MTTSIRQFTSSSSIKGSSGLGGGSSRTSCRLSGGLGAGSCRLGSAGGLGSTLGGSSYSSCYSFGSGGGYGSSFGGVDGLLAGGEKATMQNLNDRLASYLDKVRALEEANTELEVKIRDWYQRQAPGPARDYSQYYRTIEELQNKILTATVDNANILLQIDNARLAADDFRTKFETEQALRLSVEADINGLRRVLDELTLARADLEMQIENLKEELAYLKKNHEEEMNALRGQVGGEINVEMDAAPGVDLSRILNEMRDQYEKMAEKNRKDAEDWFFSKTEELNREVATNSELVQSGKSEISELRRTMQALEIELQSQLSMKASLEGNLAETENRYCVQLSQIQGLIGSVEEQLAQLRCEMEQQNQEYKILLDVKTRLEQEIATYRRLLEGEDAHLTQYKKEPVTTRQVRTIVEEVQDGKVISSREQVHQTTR

Variant | effect of a mutation on the interaction
L210M | with no effect
R415H | with no effect
V523F | with no effect
T552S | with no effect

Variants of: B1
Settings: with tfp11_human TFIP11, Q9UBB9
tfp11_human TFIP11, Q9UBB9, sequence (Q9UBB9 whole entry): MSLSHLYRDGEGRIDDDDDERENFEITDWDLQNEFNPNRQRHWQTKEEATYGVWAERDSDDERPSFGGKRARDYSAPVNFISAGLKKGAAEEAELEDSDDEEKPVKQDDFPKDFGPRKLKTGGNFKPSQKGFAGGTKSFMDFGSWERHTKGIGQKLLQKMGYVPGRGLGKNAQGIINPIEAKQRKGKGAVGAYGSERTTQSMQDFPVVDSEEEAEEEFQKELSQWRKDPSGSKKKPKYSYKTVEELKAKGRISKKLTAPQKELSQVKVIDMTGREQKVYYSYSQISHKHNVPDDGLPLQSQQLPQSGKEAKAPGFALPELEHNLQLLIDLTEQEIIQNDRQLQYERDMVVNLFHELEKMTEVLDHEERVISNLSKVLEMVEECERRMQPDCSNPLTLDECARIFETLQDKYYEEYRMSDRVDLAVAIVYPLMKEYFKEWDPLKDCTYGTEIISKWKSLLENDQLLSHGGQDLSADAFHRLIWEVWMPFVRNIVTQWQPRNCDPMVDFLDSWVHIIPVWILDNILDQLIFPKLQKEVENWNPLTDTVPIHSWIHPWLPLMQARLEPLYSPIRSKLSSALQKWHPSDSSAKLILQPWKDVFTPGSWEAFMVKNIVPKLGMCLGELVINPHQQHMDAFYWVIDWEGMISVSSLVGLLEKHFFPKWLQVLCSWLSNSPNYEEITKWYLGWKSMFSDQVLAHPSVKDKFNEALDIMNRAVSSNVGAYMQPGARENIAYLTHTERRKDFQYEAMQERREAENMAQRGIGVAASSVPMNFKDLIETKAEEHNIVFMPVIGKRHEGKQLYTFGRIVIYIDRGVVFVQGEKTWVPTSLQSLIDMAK

Variant | effect of a mutation on the interaction
L210M | with no effect
R415H | with no effect
V523F | with no effect
T552S | with no effect

Variants of: B1
Settings: with KRT15, P19012
KRT15, P19012, sequence (P19012 whole entry): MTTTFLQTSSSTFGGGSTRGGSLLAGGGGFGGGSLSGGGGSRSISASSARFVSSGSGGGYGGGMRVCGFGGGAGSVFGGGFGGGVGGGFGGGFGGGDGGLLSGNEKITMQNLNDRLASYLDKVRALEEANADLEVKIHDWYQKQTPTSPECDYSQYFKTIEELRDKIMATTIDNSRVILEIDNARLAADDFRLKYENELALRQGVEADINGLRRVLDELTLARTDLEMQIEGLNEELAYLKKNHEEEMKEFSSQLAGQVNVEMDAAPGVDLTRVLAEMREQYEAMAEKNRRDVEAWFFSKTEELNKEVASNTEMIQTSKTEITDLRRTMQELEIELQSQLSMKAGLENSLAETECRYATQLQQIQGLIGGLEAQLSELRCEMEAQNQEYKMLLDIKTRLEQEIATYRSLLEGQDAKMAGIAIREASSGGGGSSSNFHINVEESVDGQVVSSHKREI

Variant | effect of a mutation on the interaction
L210M | with no effect
R415H | with no effect
V523F | with no effect
T552S | with no effect
